{"source": "the nanobody polyreactivity screen of Harvey et al. (2022)", "data": [{"assay": "yeast display, Sf9 membrane polyspecificity reagent, FACS + sequencing; frameworks hold sequencing errors", "method_in_brief": "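Synthetic nanobody libraries on Saccharomyces cerevisiae BJ5465 were galactose-induced for 36–48 hours, stained 1 hour at 4 °C with 10% biotinylated, detergent-solubilized Sf9 membrane reagent and enriched on streptavidin microbeads. FACS then separated cells into low and high (top ~1%) gates by anti-HA (expression) and streptavidin (reagent binding) fluorescence. Genes were colony-PCR amplified, MiSeq 2 × 250 sequenced and CDR-length filtered. A clone's polyreactivity label is that of its gate of origin.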", "values": [{"sequence": "QVQLVESGGGLVQAGGSLRLSCAASGSIFRVYTMGWYIQAPGKERELVAAISRSGGRTYYADSVKGRFTISRDNAKNTVYLQMNSLKPEDTAVYYCAARSSLYRAGYRYNSWGQGTQVTVSS", "polyreactivity (PSR sort gate)": "high polyreactivity"}, {"sequence": "QVQLVESGGGLVQAGGSLRLSCAASGSIFRVYTMGWYRQAPGKERELVAAISRSGGRTYYADSVKGRFTISRDNAKNTVYLQMNSLKPEDTAVYYCNAQYGGQYGYGYWGQGTQVTVSS", "polyreactivity (PSR sort gate)": "high polyreactivity"}, {"sequence": "QVQLVESGGGLVQAGGSLRLSCAASGSIFRWNAMGWYIQAPGKERELVAAIDSGGSTYADSVKGRFTISRDNAKNTVYLQMNSLKPDDTAVYYCAAEIPDEWPYDYWGQGTQVTVSS", "polyreactivity (PSR sort gate)": "low polyreactivity"}, {"sequence": "QVQLVESGGGLVQAGGSLRLSCAASGSIFRWNAMGWYRQSPGKERELLAAIDSGGSTYADSVKGRFTISRYNAKNTVYLQMYSLKPEDTAVYYCAAEIPDEWPYDYWGQGTQVTVSS", "polyreactivity (PSR sort gate)": "low polyreactivity"}, {"sequence": "QVQLVESGGGLVQAGGSLRLSCAASGSIFRWYAMGWSRQAPGKEREFVAAITSSGGSTYYADSVKGRFTISRDNAKNTVYLQMNSLKPEDTAVYYCNRRYQPYSYDYWGQGTQVTVSS", "polyreactivity (PSR sort gate)": "high polyreactivity"}, {"sequence": "QVQLVESGGGLVQAGGSLRLSCAASGSIFRWYDMGWYRQAPGKERELVAVISKRGGSTYYADSVKGRFTISRDNAKNTVYLQMNSLKPEDTAVYYCAKRYERWQLARLDYWGQGTQVTVSS", "polyreactivity (PSR sort gate)": "high polyreactivity"}, {"sequence": "QVQLVESGGGLVQAGGSLRLSCAASGSIFRYNALGWYRQAPGKEREFVAAITRSGGSTYADSVKGRFTISRDNAKNTVYLQMNSLKPEDTAVYYCAATFKWYSHTKPRFDYWGQGTQVTVSS", "polyreactivity (PSR sort gate)": "low polyreactivity"}, {"sequence": "QVQLVESGGGLVQAGGSLRLSCAASGSIFRYNAMGRYRQAPGKERELVAAITSNGGSTYYADSVKGRFTISRDNAKNTVYLQMNCQKPEDTAVYYCNAVYTFTRRYGYWGQGTQVTVSS", "polyreactivity (PSR sort gate)": "high polyreactivity"}, {"sequence": "QVQLVESGGGLVQAGGSLRLSCAASGSIFRYNAMGWSRQAPGKEREFVAAISYSGGRTYYADSVKGRFTISRDNAKNTVYLQMNSLNPEDTAVYYCNAQYASGRSYFFYWHRYDYWGQGTQVTVSS", "polyreactivity (PSR sort gate)": "high polyreactivity"}, {"sequence": "QVQLVESGGGLVQAGGSLRLSCAASGSIFRYNAMGWYRKAPGKERELVAAISYRGGSTYYADSVKGRFTISRDNAKITVYLQINSLKPEDTAVYYCAAAVQYSGYRFNYWGQGTQVTVSS", "polyreactivity (PSR sort gate)": "high polyreactivity"}, {"sequence": "QVQLVESGGGLVQAGGSLRLSCAASGSIFRYNAMGWYRQAPGKERELVAAISASGGRTHYADSVKGRFTISRDNAKNTVYLQMNSLKPEDTAVYYCAAATYRGTSLYGYWGQGTQVTVSS", "polyreactivity (PSR sort gate)": "high polyreactivity"}, {"sequence": "QVQLVESGGGLVQAGGSLRLSCAASGSIFRYNAMGWYRQAPGKERELVAAITSGDSTYYADSVKGRFTISRDNAKNTVYLQMNSLKPEDTAVYYCAVTTWANTQWEDYWGHGTQVTVSS", "polyreactivity (PSR sort gate)": "low polyreactivity"}, {"sequence": "QVQLVESGGGLVQAGGSLRLSCAASGSIFRYNTMGWYRQAPGKERELVAAIRGDGSTNYADSVKGRFTISRANAKNTVYLQMNSLKPEDTAVYYCAVTLRGYRYAYDYWGQGTQVTVSS", "polyreactivity (PSR sort gate)": "low polyreactivity"}, {"sequence": "QVQLVESGGGLVQAGGSLRLSCAASGSIFRYNTMGWYRQAPGKERELVASIRIGGSTYYADSVKGRFTISRDNAKNTVYLQMNSLKPEDTAVYYCAVRPYRSAGGSVTRGAYYYWGQGTQVTVSS", "polyreactivity (PSR sort gate)": "high polyreactivity"}, {"sequence": "QVQLVESGGGLVQAGGSLRLSCAASGSIFRYYAMGWYIQAPGKERELVAGITGSTGRTYYADSVKGRFTISRDNAKNTVYLQMNSLKPEDTAVYYCAARSRYYEYDYWGQGTQVTVSS", "polyreactivity (PSR sort gate)": "low polyreactivity"}, {"sequence": "QVQLVESGGGLVQAGGSLRLSCAASGSIFRYYAMGWYRQAPGKDRELVAVITRGGSTYYADSVKGRFTISRDNAKNTVYLQMNSLKPEDTAVYYCAADSWPAGLDRGYWGQGTQVTVSS", "polyreactivity (PSR sort gate)": "low polyreactivity"}, {"sequence": "QVQLVESGGGLVQAGGSLRLSCAASGSIFRYYAMGWYRQAPGKEREFVAAINTNDAGTYYADSVKGRFTISRDYAKNTVYLQMNSLKPEDTAVYYCAADTGYRFWYDYWGQGTQVTVSS", "polyreactivity (PSR sort gate)": "high polyreactivity"}, {"sequence": "QVQLVESGGGLVQAGGSLRLSCAASGSIFRYYAMGWYRQAPGKERELVAAISGDSGRTYYADSVKGRFTISRDNAKNTVYFQMNSLKPEDTAVYYCNARVAYRYRTGYDYWGQGTQVTVSS", "polyreactivity (PSR sort gate)": "high polyreactivity"}, {"sequence": "QVQLVESGGGLVQAGGSLRLSCAASGSIFRYYAMGWYRQAPGKERELVAAITASGGRTHYADSVKGRFTISRDNAKNTVYLQLNSLKLEDTAVYYCAADLYYAWYWKQHYDYWGQGTQVTVSS", "polyreactivity (PSR sort gate)": "high polyreactivity"}, {"sequence": "QVQLVESGGGLVQAGGSLRLSCAASGSIFRYYAMGWYRQAPGKERELVADITSSGGSTYYADSVKGRFTISRDNAKNTVYLQMNSLKPEDTAVYYCASLYWFYVYPFTEYDYWGQGTQVTVSS", "polyreactivity (PSR sort gate)": "low polyreactivity"}, {"sequence": "QVQLVESGGGLVQAGGSLRLSCAASGSIFRYYAMGWYRQAPGKERELVARISSGGSTYYADSVKGRFTISRDNAKNTVYLQMNSLKPEDTAVYYCNAGAPARYWWEGDYWGQGTQVTVSS", "polyreactivity (PSR sort gate)": "high polyreactivity"}, {"sequence": "QVQLVESGGGLVQAGGSLRLSCAASGSIFRYYAMGWYRQAPGKERELVARISWRAGSTYADSVKGRFTISRDNAKNTVYLQMNSLKPEDTAVYYCNADAHKYSWVGTSEYEYWGQGTQVTVSS", "polyreactivity (PSR sort gate)": "high polyreactivity"}, {"sequence": "QVQLVESGGGLVQAGGSLRLSCAASGSIFRYYAMGWYRQAPGKERELVAVISSGGTRTNYADSVKGRFTISRDTAKNTVYLQMNSLKPEDTAVYYCAAGYLSLYGGGYWGQGTQVTVSS", "polyreactivity (PSR sort gate)": "high polyreactivity"}, {"sequence": "QVQLVESGGGLVQAGGSLRLSCAASGSIFRYYAMGWYRQEPGKERELVAAISWDGGTTYYADSVKGRFTISRDNAKNTVYLQMNSLKPEDTGVYYCNVEFPLSSYGYDYWGQGTQVTVSS", "polyreactivity (PSR sort gate)": "low polyreactivity"}, {"sequence": "QVQLVESGGGLVQAGGSLRLSCAASGSIFRYYVMGWYRQAPGKERELVATISRSGGRTYYADSVKGRFTISRDYAKNTVYLQMNSLKPEDTAVYYCARTYGGYPTTYDYWGQGTQVTVSS", "polyreactivity (PSR sort gate)": "high polyreactivity"}, {"sequence": "QVQLVESGGGLVQAGGSLRLSCAASGSIFSANAMGWYRQAPGKERELVASITGDGSTNYADSVKGRFTISRDNAKNTVYLQMNSLKPEDTAVYYCAADIGSWYDYWGQGTQVTVSS", "polyreactivity (PSR sort gate)": "low polyreactivity"}, {"sequence": "QVQLVESGGGLVQAGGSLRLSCAASGSIFSAYAMGWYRQAPGKERELVAAISDSGDSTYYADSVKGRFTISRDNAKNTVYLQMNSLKPEDTAVYYCAAESPKWGQGTQVTVSS", "polyreactivity (PSR sort gate)": "low polyreactivity"}, {"sequence": "QVQLVESGGGLVQAGGSLRLSCAASGSIFSAYAMGWYRQAPGKERELVAGISKRGGSTYYADSVKGRFTISRDNAKNTVYLQMNSLKPEDTAVYYCNAARYTVVTKLFDYWGQGTQVTVSS", "polyreactivity (PSR sort gate)": "high polyreactivity"}, {"sequence": "QVQLVESGGGLVQAGGSLRLSCAASGSIFSAYGMGWYRQAPGKERELVAAITRSGGSTYYADSVKGRFTISRDNAKNTVYLQMNSLKPEDTAVYYCAAKSIIRPYAPRRDDMDYWGQGTQVTVSS", "polyreactivity (PSR sort gate)": "low polyreactivity"}, {"sequence": "QVQLVESGGGLVQAGGSLRLSCAASGSIFSDNAMGWYRPAPGKESELVAAITYSGGRTSYADSVKGRFTISRDNAKNTVYLQMNSLKPEDTAVYYCNAEYYYWNREGDYWGQGTQVTVSS", "polyreactivity (PSR sort gate)": "low polyreactivity"}, {"sequence": "QVQLVESGGGLVQAGGSLRLSCAASGSIFSDNAMGWYRQAPGKERDLVAAISWIGDSTDYADSVKGRFTISRDNAKNTVYLQMNSLKPEDTAVYYCAADAKVVSPRYRANDIGMFYWGQGTQVTVSS", "polyreactivity (PSR sort gate)": "low polyreactivity"}, {"sequence": "QVQLVESGGGLVQAGGSLRLSCAASGSIFSDNAMGWYRQAPGKERELVAAISWIGDSTDYADSVKGRFTISRDNAKNTVYLQMNSLKPEDTAVYYCAGDAKVVSPRYRANDIGMYYWGQGTQVTVSS", "polyreactivity (PSR sort gate)": "low polyreactivity"}, {"sequence": "QVQLVESGGGLVQAGGSLRLSCAASGSIFSEYAMGWYRQAPGKERELVAAINDGGGSTYYADSVKGRFTISRDNAKNTVYLQMNSLKPEDTAVYYCAAETVRWWWLYDYWGQGTQVTVSS", "polyreactivity (PSR sort gate)": "high polyreactivity"}, {"sequence": "QVQLVESGGGLVQAGGSLRLSCAASGSIFSFNAMGRSRQAPGKERELVASITSGGSTNYADSVKGRFTISRDNAKNTVYLQMNSLKPEDTEVYYCNARFPYLSRWLVRGLASYDYWGQGTQVTVSS", "polyreactivity (PSR sort gate)": "low polyreactivity"}, {"sequence": "QVQLVESGGGLVQAGGSLRLSCAASGSIFSFNVMGWYRQAPGKEREMVATITGGGSTNYADSVKGRFTISRDNAKNTVYLQMNSLKPEDTAVYYCNKRNRWTPFYTYDYWGQGTQVTVSS", "polyreactivity (PSR sort gate)": "low polyreactivity"}, {"sequence": "QVQLVESGGGLVQAGGSLRLSCAASGSIFSFYAMGSYRQAPGKERELVAAISWSGGSTYYADSVKGRFTISRDNAKNTVYLLMNSLKPEDTAVYYCAREKAVSYYGYDHWGQGTQVTVSS", "polyreactivity (PSR sort gate)": "low polyreactivity"}, {"sequence": "QVQLVESGGGLVQAGGSLRLSCAASGSIFSFYAMGWYRQAPGKEREFVAAITISDDSTYYADSVKGRFTISRDNAKNTVYLQMNSLKPEDTAVYYCNARYLSWYFKYLYDYWGQGTQVTVSS", "polyreactivity (PSR sort gate)": "low polyreactivity"}, {"sequence": "QVQLVESGGGLVQAGGSLRLSCAASGSIFSGNAMGWYRQAPGKKGVGCRYYSCWFYDYADSVKGRFTISRDNAKNTVYLQMNSLKPEDTAVYYCAKSNYVRSEFNYWGQGTQVTVSS", "polyreactivity (PSR sort gate)": "low polyreactivity"}, {"sequence": "QVQLVESGGGLVQAGGSLRLSCAASGSIFSGNTMGWYRQAPGKERELVAAISGRGSNTYYADSVKGRFTISRDNAKNTVYLQMNSLKPEDTAVYYCAAPWVVRRTAYDYWGQGTQVTVSS", "polyreactivity (PSR sort gate)": "high polyreactivity"}, {"sequence": "QVQLVESGGGLVQAGGSLRLSCAASGSIFSGYAMGWYRQAPGKERELVAAISGSGGSTFYADSVKGRFTISRDNAKNTVYLQMNSLKPEDTAVYYCAARRIAPYGRYDYWGQGTQVTVSS", "polyreactivity (PSR sort gate)": "low polyreactivity"}, {"sequence": "QVQLVESGGGLVQAGGSLRLSCAASGSIFSGYAMGWYRQAPGKERELVAAITWRAASTYYADSVKGRFTISRDNAKNTVYLQMNSLKPEDTAVYYCAKEGGPKPAFYYWGQGTQVTVSS", "polyreactivity (PSR sort gate)": "low polyreactivity"}, {"sequence": "QVQLVESGGGLVQAGGSLRLSCAASGSIFSGYAMGWYRQAPGKESELVAAISGSGGSTFYADSVKGRFTISRDNAKNTVYLQMISLKPEDTAVYYCAARRIAPFGRYDYWGQGTQVTVSS", "polyreactivity (PSR sort gate)": "low polyreactivity"}, {"sequence": "QVQLVESGGGLVQAGGSLRLSCAASGSIFSHKVMGWYRQAPGKERELVAAITYRGGSTYYADSVKGRFTISRDNAKNTVYLQMNSRKPEDTAVYYCAALNEVSTYHGFDYWGQGTQVTVSS", "polyreactivity (PSR sort gate)": "low polyreactivity"}]}]}
